According to patent US20020192704A1:

Target: IRR-Fc fusion protein (extracellular region of mouse insulin receptor-related receptor, 1-920th residues, fused to the H-chain C (constant) region (Fc region) of human IgG1) (mouse; human) (UniProt Q9WTL4)
Assay: SPR (BIACORE 2000), IRR-Fc immobilised on a CM5 chip, IR-Fc flow cell subtracted; about 10 ug of specimen in 200 ul of buffer

IRR-Fc fusion protein (extracellular region of mouse insulin receptor-related receptor, 1-920th residues, fused to the H-chain C (constant) region (Fc region) of human IgG1) (mouse; human), sequence (Q9WTL4 27-920 limits assumed, form in doubt): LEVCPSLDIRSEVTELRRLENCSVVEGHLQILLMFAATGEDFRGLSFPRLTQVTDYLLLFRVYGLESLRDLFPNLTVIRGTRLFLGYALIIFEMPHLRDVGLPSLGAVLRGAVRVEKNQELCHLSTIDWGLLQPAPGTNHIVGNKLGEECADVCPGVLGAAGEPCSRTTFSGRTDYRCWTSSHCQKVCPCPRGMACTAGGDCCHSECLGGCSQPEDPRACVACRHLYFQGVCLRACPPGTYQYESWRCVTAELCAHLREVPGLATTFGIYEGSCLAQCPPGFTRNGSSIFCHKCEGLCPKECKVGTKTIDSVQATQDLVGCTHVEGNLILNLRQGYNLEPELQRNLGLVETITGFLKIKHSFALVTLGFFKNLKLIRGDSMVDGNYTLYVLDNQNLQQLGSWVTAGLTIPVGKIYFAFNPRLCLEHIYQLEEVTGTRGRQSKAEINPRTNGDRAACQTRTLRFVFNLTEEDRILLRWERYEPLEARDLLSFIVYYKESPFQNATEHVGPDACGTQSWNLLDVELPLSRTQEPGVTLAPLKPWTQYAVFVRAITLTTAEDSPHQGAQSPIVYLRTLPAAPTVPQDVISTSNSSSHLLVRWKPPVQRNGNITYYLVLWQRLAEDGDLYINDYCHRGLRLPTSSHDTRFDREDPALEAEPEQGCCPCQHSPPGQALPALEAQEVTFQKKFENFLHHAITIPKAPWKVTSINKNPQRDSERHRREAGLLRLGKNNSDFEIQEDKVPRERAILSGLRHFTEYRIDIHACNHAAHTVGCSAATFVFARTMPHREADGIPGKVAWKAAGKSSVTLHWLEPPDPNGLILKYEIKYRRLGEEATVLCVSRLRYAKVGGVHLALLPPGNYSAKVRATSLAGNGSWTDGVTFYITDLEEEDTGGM

| Substance | binding activity (RU; IRR-Fc binding value minus IR-Fc binding value) [RU] |
| --- | --- |
| Peak 1 of the re-purified IRR ligand from rat C6 glioma cell culture supernatant (rat epithelin/granulin precursor fragments, SEQ ID NOS: 5 and 6) (from UniProt P23785 438-494) | 13 |
| Peak 2 of the re-purified IRR ligand from rat C6 glioma cell culture supernatant (rat epithelin/granulin precursor fragment, SEQ ID NO: 4) (from UniProt P23785 439-494) | 21 |
